Patent US20130011868A1

Key:
[1] = target: rat GPVI-hFc fusion protein (rat; mouse; human); assay: ELISA, immobilized rat GPVI-hFc, control
[2] = target: hGPVI-mL9-hFc substituted mutant protein (human) (UniProt Q9HCN6); assay: ELISA, immobilized hGPVI-mL9-hFc
[3] = target: human GPVI-hFc fusion protein (human) (UniProt Q9HCN6); assay: ELISA, immobilized hGPVI-hFc; +++ = absorbance greater than 2.0
[4] = target: human GPVI-hFc fusion protein (human) (UniProt Q9HCN6); assay: ELISA, immobilized hGPVI-hFc; ++ = absorbance 1.0 to 2.0
[5] = target: human GPVI-hFc fusion protein (human) (UniProt Q9HCN6); assay: ELISA, immobilized hGPVI-hFc; + = absorbance 0.5 up to 1.0

rat GPVI-hFc fusion protein (rat; mouse; human), sequence (P0C191 205-265): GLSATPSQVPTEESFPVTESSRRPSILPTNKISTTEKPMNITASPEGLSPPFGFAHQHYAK

Molecule	absorbance at 450 nm (absorbance 450 nm) [1]	absorbance [2]	absorbance [3]	absorbance [4]	absorbance [5]
F1249-30-1 (antibody, from a related filing, V domains shown) VH: QVQLQQSGAELVRPGVSVKISCKGSGYTFTDYAMHWVKQSHAKSLEWIGVISTYYGDTSYNQKFKGKAAMTVDKSSSTAYMELARLTSDDSAIYYCARAEDYDPWFAYWGQGTLVTVSA VL: DIVLTQSPASLAVSLGQRATISCRASESVDSYGNSFMHWYQQKPGQPPKLLIYRASNLESGIPARFSGSGSRTDFTLTINPVEADDVATYYCQQSDEDPLTFGAGTKLELKR	–	< 0.5 od	> 2 od	–	–
F1246-1-1 (antibody, from a related filing, V domains shown) VH: EVQLVESGGDLVKPGGSLKLSCAASGFTFSSYGMSWVRQTPDKRLEWVATISNGGTYTYYPDSVKGRFTISRDNAKNTLYLQMSSLKSDDTAMYYCGRLRDYYAMDYWGQGTSVTVSS VL: DIVLTQSPASLAVSLGQRATISCRASESVDSYGNSFMHWYQQKPGQPPKLLIYRASNLESGIPARFSGSGSRTDFTLTINPVEADDVATYYCQQSNEDPWTFGGGTKLEIKR	–	< 0.5 od	–	1 to 2 od	–
F1249-24-1 (antibody, from a related filing, V domains shown) VH: QVQLQQSGAELVRPGVSVKISCKGSGYTFTDYAMHWVKQSHAKSLEWIGVISTYYGDTSYNQKFKGKATMTVDKSSSTAYMELARLTSEDSAIYYCARAEDYDPWFAYWGQGTLVTVSA VL: DIVLTQSPASLAVSLGQRATISCRASESVDSYGNSFMHWYQQKPGQPPKLLIYRASNLESGIPARFSGSGSRTDFTLTINPVEADDVATYYCQQSDEDPLTFGAGTKLELKR	–	< 0.5 od	> 2 od	–	–
F1249-20-1 (antibody, from a related filing, V domains shown) VH: QVQLQQSGAELVRPGVSVKISCKGSGYTFTDYAMHWVKQSHAKSLEWIGVISTYYGDTSYNQKFKGKATMTVDKSSSTAYMELARLTSEDSAIYYCARAEDYDPWFAYWGQGTLVTVSA VL: DIVLTQSPASLAVSLGQRATISCRASESVDSYGNSFMYWYQQKPGQPPKLLIYRASNLESGIPARFSGSGSRTDFTLTINPVEADDVATYYCQQSDEDPLTFGAGTKLELKR	–	< 0.5 od	> 2 od	–	–
F1249-3-2 (antibody, from a related filing, V domains shown) VH: EVQLVESGGGLVKPGGSLKLSCAASGFTFSSYGMSWVRQTPDKRLEWVATISSGGSYTYYSDSVKGRFTISRDNAKNNLYLQLSSLKSQDTAIYYCARDSGYFDYWGQGTTLTVSS VL: NIVLTQSPASLAVSLGQRATISCRASESVDSYGNSFMHWYQQKPGQPPKLLIYLASNLESGVPARFSGSGSRTDFTLTIDPVEADDAATYYCQQNNEDPRTFGGGTKLEIKR	–	< 0.5 od	–	–	0.5 to 1 od
F1245-7-1 (antibody, from a related filing, V domains shown) VH: QVQLQQPGAELVKPGASVKLSCKASGYTFTSYWMHWVKQRPGQGLEWIGMIHPNSGSTNYNEKFKSKATLTVDKSSSTAYMQLSSLTSEDSAVYYCASPVTAVVEYYFDYWGQGTTLTVSS VL: SIVMTQTPKFLLVSAGDRVTITCKASQSVSNDVAWYQQKPGQSPKLLIYYASNRYTGVPDRFTGSGYGTDFTFTISTVQAEDLAVYFCQQDYSSLTFGSGTKLEIKR	–	< 0.5 od	–	1 to 2 od	–
F1245-5-1 (antibody, from a related filing, V domains shown) VH: QVQLQQPGAELVKPGASVKLSCKASGYTFISYWMHWVKQRPGQGLEWIGMIHPNSGSTHYNEKFKSKATLTVDKSSSTAYMQLSSLTSEDSAVYYCARGGVTPVAYWGQGTLVTVSA VL: SIVMTQTPKFLLVSAGDRVTITCKASQSVSNDVAWYQQKPGQSPKLLIYYASNRYTGVPDRFTGSGYGTDFTFTISTVQAEDLAVYFCQQDYSSPWTFGGGTKLEIKR	–	< 0.5 od	–	1 to 2 od	–
F1245-4-1 (antibody, from a related filing, V domains shown) VH: QVQLQQPGAELVKPGASVKLSCKASGCTFTSYWMHWVKQRPGQGLEWIGMIHPNSDNTNYNEKFKSKATLTVDKSSSTAYMHLSSLTSEDSAVYYCATHYYDYVDYWGQGTTLTVSS VL: NIVMTQTPKFLLVSAGDRVTITCKASQSVSNDVAWYQQKPGQSPKLLIYYASNRYTGVPDRFTGSGYGTDFTFTISTVQAEDLAVYFCQQDYSSPWTFGGGTKLEIKR	–	< 0.5 od	> 2 od	–	–
F1245-6-2 (antibody, from a related filing, V domains shown) VH: QVQLQQPGAELVKPGASVKLSCKASGYTFTSYWMHWVKQRPGQGLEWIGMIHPNSGSTNYNEKFKSKATLTVDKSSSTAYMQLSSLTSEDSAVYYCARGGVTPVAYWGQGTLVTVSA VL: SIVMTQTPKFLLVSAGDRVTITCKASQSVSNDVAWYQQKPGQSPKLLIYYASNRYTGVPYRFTGSGYGTDFTFTISTVQAEDLAVYFCQQDYSSPWTFGGGTKLEIKR	–	< 0.5 od	–	1 to 2 od	–

Continued, values first:

absorbance at 450 nm (absorbance 450 nm) [1]	absorbance [2]	absorbance [3]	absorbance [4]	absorbance [5]	Molecule
0.123	–	–	–	–	normal mouse IgG (antibody)
0.137	< 0.5 od	–	–	–	F1232-37-2 (antibody, from a related filing, V domains shown) VH: VQLQQSGPELVRPGESVKISCKGSGYTFTDYAIHWVKLSHAKSLEWIGVISIYYDDTNYNQKFKGKATMTVDKSSSTAYLELARLTSEDSAIYYCARRRDSSGPYAMDYWGQGTSVTVSS VL: DIVLTQSPASLAVSLGQRATISCRASESVDSYGNSFMHWYQQKPGQPPKLLIYRASNLESGIPARFSGSGSRTDFTLTINPVEADDVATYYCQQSNEDPYTFGGGTKLEIKR
–	< 0.5 od	> 2 od	–	–	F1249-18-2 (antibody, from a related filing, V domains shown) VH: QVQLQQPGAELVKPGASVKLSCKASGYTFTSYWMHWLKQRPGQGLEWIGMIHPNSDITNYNEKFKNKATLTVDKSSSTAYMQLSSLTSEDSAVYYCARSGDYYAMDYWGQGTSVTVSS VL: SIVMTQTPKFLLVSAGDRVTITCKASQSVSNDVAWYQQKPGQSPKLLIYYASNRYTGVPDRFTGSGYGTDFTFTISTVQAEDLAVYFCQQDYSSPPTFGGGTKLEIKR
–	< 0.5 od	–	1 to 2 od	–	F1249-5-1 (antibody, from a related filing, V domains shown) VH: QVQLQQPGAELVKPGASVKLSCKASGYTFTSYWMHWLKQRPGQGLEWIGMIHPNSDITNYNEKFKNKATLTVAKSSSTAYMQLSSLTSEDSAVYYCARLGDYYAMDYWGQGTSVTVSS VL: SIVMTQTPKFLLVSAGDRVTITCKASQSVSNDVTWYQQKPGQSPKLLIYYASNRYTGVPDRFTGSGYGTDFTFTISTVQAEDLAVYFCQQDYSSPPTFGGGTKLEIKR
